{"source": "patent US20210284749A1", "about": "(ABL BIO, published 2021)", "key": {"[1]": {"target": "T1, human BCMA-Fc (R&D system, 193-BC-050) (human, UniProt Q02223 1-54, limits assumed)", "T1 construct": "Bought construct; not shown: Fc part", "T1 sequence": "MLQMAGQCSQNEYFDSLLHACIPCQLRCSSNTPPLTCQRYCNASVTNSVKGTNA", "assay": "competition ELISA on coated human BCMA-Fc; antibody titrated and mixed with 200 ng/ml BAFF, bound BAFF detected, absorbance 450 nm", "experimental": "Specifically, human BCMA-Fc (R&D system, 193-BC-050) was diluted using a PBS buffer, and then 100 ng of the dilution per well was coated on the ELISA plate. After the coating, the plate was emptied, and 100 μl of PBST containing 1% BSA was added to each well and incubated at 37° C. for 2 hours. The antibodies diluted at a concentration of 50 μg/ml to 0.00028 μg/ml were mixed with 10 ng/ml of APRIL protein (R&D, 5860-AP-010/CF) or 200 ng/ml of BAFF (R&D, 2149-BF-010/CF). An IgG1 antibody was used as a negative control, and a J6MO antibody was used as a comparative group.\nUsing anti-HA-HRP (Roche, 12013819001) or anti-His-HRP (Roche, 11965085001) as secondary antibodies, ELISA assay was performed as described in Example 1.4(1). As a comparative group, anti-BCMA monoclonal antibody J6MO (GSK) was used."}, "[2]": {"target": "T2, recombinant human BCMA (ELISA antigen, construct not specified) (human, UniProt Q02223 1-54)", "T2 construct": "Fc 1-51; Fc/His 1-51; Fc 4-48) was coated in these ELISAs; also called recombinant BCMA; recombinant protein", "T2 sequence": "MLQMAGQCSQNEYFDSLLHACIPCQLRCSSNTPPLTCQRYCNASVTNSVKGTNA", "assay": "ELISA on 100 ng coated human BCMA, antibody titrated, anti-human Fab HRP, absorbance 450 nm", "experimental": "(§1) 100 ng of human, monkey, mouse, and rat BCMA antigens prepared in Example 1.1 were coated on the bottom of the plate, and then coated with 3% BSA to block nonspecific binding. Using the selected anti-BCMA IgG antibodies as primary antibodies, and the anti-human Fab HRP (1:20000 dilution) as a secondary antibody, ELISA assay was performed as described in Example 1.3.\n(§2) Absorbancies at 450 nm measured with a microplate reader are shown in FIG. 3, and half maximal effective concentrations (EC₅₀) (nM) are shown in Table 9."}, "[3]": {"target": "T3, rat BCMA (1-49) fused to the Fc region of human IgG1 (rat; human)", "T3 construct": "Sino Biological Inc. 80156-R01H; also called 80156-R01H; not shown: Fc region of human IgG1", "T3 chain": "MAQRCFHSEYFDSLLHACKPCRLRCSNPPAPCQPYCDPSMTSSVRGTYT", "assay": "ELISA on 100 ng coated rat BCMA, antibody titrated, anti-human Fab HRP, absorbance 450 nm", "experimental": "as §1, §2"}, "[4]": {"target": "T4, human BCMA-Fc/His (1-51) (human, UniProt Q02223 1-51)", "T4 construct": "also called recombinant human BCMA-Fc/His; recombinant human BCMA-His (Sino Biological Inc.); not shown: Fc region; C-terminal His tag", "T4 sequence": "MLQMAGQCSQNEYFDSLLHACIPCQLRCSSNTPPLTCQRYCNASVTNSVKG", "assay": "BLI (Octet), antigen on Ni-NTA biosensor, IgG in solution", "experimental": "A 96-well black microplate was mounted on a Biosensor tray case, 200 μl of 1XKB was added to each of the 8 wells, and then 8 Ni-NTA biosensors (Fortebio) were inserted thereto for hydration for 10 minutes. For antigen fixation, 5 μg/ml of recombinant human BCMA-His (Sino Biological Inc.) was diluted using 1XKB. Experiments were performed with a threshold of 0.5 to 1.0 nm, and Octet Data Acquisition 9.0 software was activated to create an Octet program template. The first step was for Baseline 1, the second step was for loading, and the threshold was fixed to 0.5 to 1.0 nm. In the third step, which was for Baseline 2, association for 5 minutes and dissociation for 20 minutes were performed. A plate temperature was fixed to 30° C., and the prepared buffer solution was placed in order into a new 96-well black microplate according to the Octet program template. 200 μl of 1XKB used as Baseline 1 and recombinant human BCMA-Fc/His which is an antigen to be loaded were diluted to 5 μg/ml, and 200 μl of the dilution was added thereto. After adding 200 μl of 1XKB used as Baseline 2, 200 μl of the antibody to be reacted with the antigen was dispensed, and the instrument was operated. After completion of the experiment, an association constant (kon), a dissociation constant (kdis), and an equilibrium dissociation constant (KD) for each antibody were analyzed and calculated with Octet Analysis 9.0 software."}, "[5]": {"target": "T2, recombinant human BCMA (ELISA antigen, …)", "assay": "ELISA, 100 ng coated antigen", "experimental": "as §1, §2"}, "[6]": {"target": "T5, human BCMA expressed on cell surface (H929, OPM-2, CHOK1-hBCMA cells) (human, UniProt Q02223 1-184)", "T5 construct": "also called cell-surface BCMA; BCMA on cell surface", "T5 sequence": "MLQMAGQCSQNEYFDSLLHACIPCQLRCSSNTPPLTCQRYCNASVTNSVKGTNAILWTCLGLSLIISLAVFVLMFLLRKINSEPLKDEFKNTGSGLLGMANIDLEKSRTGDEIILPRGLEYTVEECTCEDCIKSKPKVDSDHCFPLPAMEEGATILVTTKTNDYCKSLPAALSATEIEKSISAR", "assay": "FACS on OPM-2 cells, 10 µg/ml antibody, anti-human Fc-FITC; open histogram shifted right of the filled control", "experimental": "(§3) Multiple myeloma cancer cells H929 (ATCC, CRL9068™) and OPM-2 cell line (DSMZ, ACC 50), which are known to express BCMA, were prepared, and human BCMA-overexpressed CHOK1-hBCMA cell line (constructed by ABIBio) were prepared.\n(§4) 10 μg/ml of the seven IgG antibodies (B58, 5A6, 5D5, 5B5, 1H, 2G, and 5G) purified in Example 1.4 was added to the prepared cells, incubated at 4° C. for 1 hour, and then washed two times with a PBS buffer solution. The anti-human Fc-FITC was diluted in 1:400, incubated at 4° C. for 1 hour, and then washed with a PBS buffer solution. These processes were repeated. In FIGS. 2A and 2B, MFI indicates mean fluorescence intensity."}, "[7]": {"target": "T5, human BCMA expressed on cell surface …", "assay": "FACS on H929 cells, 10 µg/ml antibody, anti-human Fc-FITC; open histogram shifted right of the filled control", "experimental": "as §3, §4"}, "[8]": {"target": "T2, recombinant human BCMA (ELISA antigen, …)", "assay": "ELISA on coated recombinant human BCMA, antibody titrated, HRP anti-Fab detection, absorbance 450 nm", "experimental": "Specific binding abilities of the anti-BCMA IgG antibodies isolated in Example 1.4 to recombinant BCMA protein were analyzed by ELISA.\nUsing recombinant human BCMA or monkey BCMA as an antigen, and HRP-conjugated Fab polychronal antibody reagent (Pierce, 31414) as a secondary antibody, ELISA was performed as described in Example 1.3."}, "[9]": {"target": "T6, mouse BCMA (1-49) fused to the Fc region of human IgG1 (mouse; human, UniProt O88472 1-49)", "T6 construct": "Sino Biological Inc. 50076-M01H; also called 50076-M01H; not shown: Fc region of human IgG1", "T6 chain": "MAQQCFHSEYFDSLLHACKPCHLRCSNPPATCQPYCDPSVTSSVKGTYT", "assay": "ELISA on 100 ng coated mouse BCMA, antibody titrated, anti-human Fab HRP, absorbance 450 nm", "experimental": "as §1, §2"}}, "data": [{"binder": "anti-BCMA IgG antibody B58 (antibody, V domains shown, also called B58 antibody) VH: EVQLLESGGGLVQPGGSLRLSCAASGFTFSNYDMSWVRQAPGKGLEWVSWIYPSDSSIYYADSVKGRFTISRDNSKNTLYLQMNSLRAEDTAVYYCARGPFANKYRQFDYWGQGTLVTVSS VL: QSVLTQPPSASGTPGQRVTISCSGSSSNIGSNSVSWYQQLPGTAPKLLIYADSKRPSGVPDRFSGSKSGTSASLAISGLRSEDEADYYCGSWDYSLSGYVFGGGTKLTVL", "values": [{"measurement": "IC50 (read off the curve)", "setting": "[1]", "value": "~5", "unit": "nM"}, {"measurement": "EC50 (read off the curve)", "setting": "[2]", "value": "~10", "unit": "ng/mL"}, {"measurement": "binding result", "setting": "[3]", "value": "no binding (tested: about 30 µg/ml)"}, {"measurement": "Kd", "setting": "[4]", "value": 0.0273, "unit": "nM"}, {"measurement": "koff", "setting": "[4]", "value": "2e-05", "unit": "s⁻¹"}, {"measurement": "kon", "setting": "[4]", "value": 735000, "unit": "M⁻¹ s⁻¹"}, {"measurement": "EC50", "setting": "[5]", "value": 79, "unit": "nM"}, {"measurement": "MFI", "setting": "[6]", "value": 23.6}, {"measurement": "MFI", "setting": "[7]", "value": 80.7}, {"measurement": "EC50 (read off the curve)", "setting": "[8]", "value": "~5", "unit": "ng/mL"}, {"measurement": "binding result", "setting": "[9]", "value": "no binding (tested: about 30 µg/ml)"}]}]}
